Measurements as given in patent publication US20240116985A1, “STAPLED PEPTIDES AND METHODS THEREOF” (priority 2020, published 2024).
Starred links: 1 amine or outer side, 2 acyl side, 3 side chain; linkers in the order of their positions; H or OH if unused. Positions of bridges follow the written chain, without caps; N, C: chain ends. Non-standard residues stand in square brackets, D forms with d. Primed or numbered codes have the meaning given here. PyrS2″ = (S)-3-amino-1-((pent-4-en-1-yloxy)carbonyl)pyrrolidine-3-carboxylic acid (stapling residue), C=CCCCOC(=O)N1CC[C@@](N[*:1])(C(=O)[*:2])C1; B5(4) = 2,2-bis(4-pentenyl)glycine = 2-amino-2-(pent-4-en-1-yl)hept-6-enoic acid (stitching residue), C=CCCCC(CCCC=C)(N[*:1])C(=O)[*:2]; B5(5) = 2,2-bis(4-pentenyl)glycine, 2-amino-2-(pent-4-en-1-yl)hept-6-enoic acid (stitching residue), C=CCCCC(CCCC=C)(N[*:1])C(=O)[*:2]; TfeGA = (S)-2-amino-3-((carboxymethyl)(2,2,2-trifluoroethyl)amino)propanoic acid, O=C([C@H](CN(CC(=O)[*:3])CC(F)(F)F)N[*:1])[*:2]; PyrS2 = (S)-3-amino-1-((pent-4-en-1-yloxy)carbonyl)pyrrolidine-3-carboxylic acid, C=CCCCOC(=O)N1CC[C@@](N[*:1])(C(=O)[*:2])C1; SPip2 = 4-amino-1-((pent-4-en-1-yloxy)carbonyl)piperidine-4-carboxylic acid, C=CCCCOC(=O)N1CCC(N[*:1])(C(=O)[*:2])CC1; B5(12) = 2-amino-2-(pent-4-en-1-yl)hept-6-enoic acid (two olefin side chains), C=CCCCC(CCCC=C)(N[*:1])C(=O)[*:2]; B5(25) = 2-amino-2-(pent-4-en-1-yl)hept-6-enoic acid (stitching residue), C=CCCCC(CCCC=C)(N[*:1])C(=O)[*:2]; EtGA = (S)-2-amino-3-((carboxymethyl)(ethyl)amino)propanoic acid, CCN(CC(=O)[*:3])C[C@H](N[*:1])C(=O)[*:2]; 2COOHF = (S)-2-(2-amino-2-carboxyethyl)benzoic acid, O=C([C@H](Cc1ccccc1C(=O)[*:3])N[*:1])[*:2]; B5(3) = 2,2-bis(4-pentenyl)glycine (stitching residue), C=CCCCC(CCCC=C)(N[*:1])C(=O)[*:2]; B5 = 2-amino-2-(pent-4-en-1-yl)hept-6-enoic acid, C=CCCCC(CCCC=C)(N[*:1])C(=O)[*:2]; Phe(3-COOH) = N[C@@H](Cc1cccc(C(=O)O)c1)C(=O)O; 2F3MeF = Cc1cccc(C[C@H](N[*:1])C(=O)[*:2])c1F; Phe(2-CF3) = N[C@@H](Cc1ccccc1C(F)(F)F)C(=O)O; Phe(2-Cl) = N[C@@H](Cc1ccccc1Cl)C(=O)O; Bta = N[C@@H](Cc1csc2ccccc12)C(=O)O; Lys(iPr) = CC(C)NCCCC[C@H](N)C(=O)O; αAllylPro = C=CC[C@@]1(C(=O)O)CCCN1; tBuAla = CC(C)(C)C[C@H](N)C(=O)O; 3Thi = N[C@@H](Cc1ccsc1)C(=O)O; Aad = N[C@@H](CCCC(=O)O)C(=O)O; Cha = N[C@@H](CC1CCCCC1)C(=O)O; Cit = NC(=O)NCCC[C@H](N)C(=O)O; S8 = C=CCCCCCC[C@](C)(N)C(=O)O; Aib = CC(C)(N)C(=O)O

Key:
Bcat-Halo [1] = target: Bcat-Halo (UniProt P35222); experiment: NanoBRET Abs IC50; B-cat-Halo / TCF4-Luc engagement in HEK293 cells
[2] = target: full-length beta-Catenin (Uniprot ID P35222) (Homo sapiens (Human)) (UniProt P35222); experiment: fluorescence polarization competition; full-length beta-catenin, 5FAM-TCF4 10-53 probe as competitor
Target sequence in this assay (P35222 whole entry, the tested form may be a part): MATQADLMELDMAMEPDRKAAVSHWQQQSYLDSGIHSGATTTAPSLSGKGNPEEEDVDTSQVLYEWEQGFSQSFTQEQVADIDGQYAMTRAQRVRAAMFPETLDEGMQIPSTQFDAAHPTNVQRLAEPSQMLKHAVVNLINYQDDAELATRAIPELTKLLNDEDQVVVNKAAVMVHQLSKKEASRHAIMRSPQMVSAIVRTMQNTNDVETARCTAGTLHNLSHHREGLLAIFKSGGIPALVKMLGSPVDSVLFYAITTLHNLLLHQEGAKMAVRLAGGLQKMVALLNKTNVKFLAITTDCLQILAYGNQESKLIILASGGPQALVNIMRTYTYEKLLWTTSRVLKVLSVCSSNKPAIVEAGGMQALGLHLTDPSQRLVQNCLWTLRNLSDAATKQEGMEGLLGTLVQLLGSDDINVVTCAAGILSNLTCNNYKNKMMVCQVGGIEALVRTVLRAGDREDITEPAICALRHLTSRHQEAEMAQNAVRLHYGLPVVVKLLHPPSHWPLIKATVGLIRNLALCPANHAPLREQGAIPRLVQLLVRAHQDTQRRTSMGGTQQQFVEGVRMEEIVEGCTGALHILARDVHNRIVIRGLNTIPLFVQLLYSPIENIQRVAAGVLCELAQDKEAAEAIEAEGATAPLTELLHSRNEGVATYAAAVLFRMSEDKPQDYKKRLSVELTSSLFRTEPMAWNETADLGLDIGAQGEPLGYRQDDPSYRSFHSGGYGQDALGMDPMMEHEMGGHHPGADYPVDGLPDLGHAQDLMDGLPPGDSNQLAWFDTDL

[3] = target: full-length beta-Catenin (Uniprot ID P35222) (Homo sapiens (Human)) (UniProt P35222); experiment: fluorescence polarization competition; full-length beta-catenin, 5FAM-TCF4 10-53 probe
Target sequence in this assay (P35222 whole entry, the tested form may be a part): as above

[4] = target: full-length beta-Catenin (Uniprot ID P35222) (Homo sapiens (Human)) (UniProt P35222); experiment: fluorescence polarization competition; full-length beta-catenin, competitor 5FAM-TCF4(10-53) probe
Target sequence in this assay (P35222 whole entry, the tested form may be a part): as above

[5] = target: full-length beta-Catenin (Uniprot ID P35222) (Homo sapiens (Human)) (UniProt P35222); experiment: fluorescence polarization competition; full-length beta-catenin with 5FAM-TCF4(10-53) probe as competitor
Target sequence in this assay (P35222 whole entry, the tested form may be a part): as above

[6] = target: Bcat-Halo (beta-catenin HaloTag construct expressed in HEK293 cells) (UniProt P35222); experiment: NanoBRET Abs IC50 in HEK293 cells; Bcat-Halo with TCF4-Luc as competitor
[7] = target: full-length beta-Catenin (Uniprot ID P35222) (Homo sapiens (Human)) (UniProt P35222); experiment: fluorescence polarization competition; displacement of 5FAM-TCF4(10-53) from full-length beta-catenin
Target sequence in this assay (P35222 whole entry, the tested form may be a part): as above

[8] = target: full-length beta-Catenin (Uniprot ID P35222) (Homo sapiens (Human)) (UniProt P35222); experiment: fluorescence polarization competition; 10 nM full-length beta-catenin with 10 nM 5FAM-TCF4 (residues 10-53) probe as competitor
Target sequence in this assay (P35222 2-781 limits assumed): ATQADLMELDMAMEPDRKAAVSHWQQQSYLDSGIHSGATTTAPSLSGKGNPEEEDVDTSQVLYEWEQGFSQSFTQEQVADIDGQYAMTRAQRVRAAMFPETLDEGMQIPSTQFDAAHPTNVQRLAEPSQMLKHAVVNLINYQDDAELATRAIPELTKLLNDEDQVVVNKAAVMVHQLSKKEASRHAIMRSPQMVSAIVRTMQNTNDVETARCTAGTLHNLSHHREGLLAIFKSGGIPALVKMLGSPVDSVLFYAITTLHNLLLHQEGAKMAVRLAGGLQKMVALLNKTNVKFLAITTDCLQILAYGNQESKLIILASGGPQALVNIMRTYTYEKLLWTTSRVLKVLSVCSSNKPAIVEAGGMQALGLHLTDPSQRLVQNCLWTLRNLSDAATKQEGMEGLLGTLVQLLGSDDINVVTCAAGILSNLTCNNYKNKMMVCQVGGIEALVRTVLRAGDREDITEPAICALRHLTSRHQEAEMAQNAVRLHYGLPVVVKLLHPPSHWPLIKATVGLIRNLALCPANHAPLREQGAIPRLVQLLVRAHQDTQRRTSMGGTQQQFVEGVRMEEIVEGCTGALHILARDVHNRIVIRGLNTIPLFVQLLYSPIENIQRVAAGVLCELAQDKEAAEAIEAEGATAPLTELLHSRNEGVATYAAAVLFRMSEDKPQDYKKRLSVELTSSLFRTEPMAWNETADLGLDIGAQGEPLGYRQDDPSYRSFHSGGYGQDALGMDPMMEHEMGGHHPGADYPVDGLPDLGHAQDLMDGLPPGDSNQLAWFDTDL

Bcat-Halo [9] = target: Bcat-Halo (UniProt P35222); experiment: NanoBRET (Abs IC50) in HEK293 cells; Bcat-Halo / TCF4-Luc
[10] = target: full-length beta-Catenin (Uniprot ID P35222) (Homo sapiens (Human)) (UniProt P35222); experiment: FP competition; full-length beta-catenin + 5FAM-TCF4(10-53) probe
Target sequence in this assay (P35222 whole entry, the tested form may be a part): as the sequence (P35222 whole entry, the tested form may be a part) above

Bcat-Halo [11] = target: Bcat-Halo (UniProt P35222); experiment: NanoBRET in HEK293 cells, Bcat-Halo / TCF4-Luc; absolute IC50
[12] = target: full-length beta-Catenin (Uniprot ID P35222) (Homo sapiens (Human)) (UniProt P35222); experiment: fluorescence polarization competition; 10 nM full-length beta-catenin, 10 nM 5FAM-TCF4(10-53) probe
Target sequence in this assay (P35222 2-781 limits assumed): as the sequence (P35222 2-781 limits assumed) above

[13] = target: full-length beta-Catenin (Uniprot ID P35222) (Homo sapiens (Human)) (UniProt P35222); experiment: FP competition vs 5FAM-TCF4(10-53), full-length beta-catenin
Target sequence in this assay (P35222 2-781 limits assumed): as above

Bcat-Halo [14] = target: Bcat-Halo (UniProt P35222); experiment: NanoBRET Abs IC50, HEK293 cells, B-cat-Halo/TCF4-Luc; competitor TCF4-Luc
[15] = target: full-length beta-Catenin (Uniprot ID P35222) (Homo sapiens (Human)) (UniProt P35222); experiment: fluorescence polarization competition; peptide titrated against 10 nM full-length beta-catenin + 10 nM 5FAM-TCF4(10-53) probe
[16] = target: full-length beta-Catenin (Uniprot ID P35222) (Homo sapiens (Human)) (UniProt P35222); experiment: cell-based or functional assay

Sequence of Bcat-Halo (beta-catenin HaloTag construct expressed in HEK293 cells) (P35222 whole entry): as the sequence (P35222 whole entry, the tested form may be a part) above
Sequence of Bcat-Halo (P35222 whole entry): as the sequence (P35222 whole entry, the tested form may be a part) above

B1: I-2577 (peptide)
peptide: Ac-[αAllylPro]D[tBuAla][B5(25)]D[Phe(3-COOH)][Aib]AFS[PyrS2″][3Thi][Bta]SA-NH2
modifications: staple 1-4, 4-11 (inferred); not fully specified; printed as Ac-PL3-Asp-Npg-B5-Asp-3COOHF-Aib-Ala-Phe-Ser-PyrS2-3Thi-BztA-Ser-Ala-NH2
IC50 (Bcat-Halo [1]): 2700 nM
IC50 [2]: 7 nM

Ac-[αAllylPro]DI[B5(5)]D[EtGA]AAFQ[S8]F[Bta]Q-NH2 (staple 1-4, 4-11; also: staple isomer 2, later eluting HPLC peak) [I-609]
IC50 [3]: 80 nM
EC50 [4]: 80 nM
IC50 [5]: 80 nM

Ac-[αAllylPro]D[tBuAla][B5(4)]DQAAFN[PyrS2″][3Thi][Bta]Q-NH2 (staple 1-4, 4-11) [I-838]
IC50 [6]: 17400 nM
IC50 [7]: 12 nM
EC50 [8]: 12 nM

Ac-[αAllylPro]D[tBuAla][B5(5)]D[Phe(3-COOH)]AAFN[PyrS2″][Phe(2-Cl)][Bta]V-NH2 (staple 1-4, 4-11) [I-2032]
IC50 (Bcat-Halo [9]): 20900 nM
IC50 [10]: 16 nM

Ac-[αAllylPro]DI[B5]D[TfeGA]AAFQ[S8]F[Bta]Q-NH2 (staple 1-4, 4-11; not fully specified) [I-610]
IC50 [3]: 54 nM
EC50 [4]: 54 nM
IC50 [5]: 54 nM

Ac-[αAllylPro]D[tBuAla][B5(5)]D[2COOHF]AAFF[PyrS2″][2F3MeF][Bta]S-NH2 (staple 1-4, 4-11) [I-1659]
IC50 (Bcat-Halo [11]): 11400 nM
IC50 [12]: 108 nM

Ac-[αAllylPro]N[Cha][B5(4)]DQ[Lys(iPr)]AFL[PyrS2]F[Bta]Q-NH2 (staple 1-4, 4-11) [I-1648]
IC50 (Bcat-Halo [11]): > 20000 nM
IC50 [12]: 191 nM

B2: I-2576 (peptide)
peptide: Ac-[αAllylPro]D[tBuAla][B5(25)]D[Phe(3-COOH)][Aib]AF[dS][PyrS2″][3Thi][Bta][dS]A-NH2
modifications: staple 1-4, 4-11 (inferred); not fully specified; printed as Ac-PL3-Asp-Npg-B5-Asp-3COOHF-Aib-Ala-Phe-dSer-PyrS2-3Thi-BztA-dSer-Ala-NH2
IC50 (Bcat-Halo [1]): 16100 nM
IC50 [2]: 6 nM

B3: I-2579 (peptide)
peptide: Ac-[αAllylPro]D[tBuAla][B5]D[Phe(3-COOH)][Aib]AFK(Ac)[PyrS2][Phe(2-CF3)][Bta]AA-NH2
modifications: staple 1-4, 4-11; not fully specified; printed as Ac-PL3-Asp-Npg-B5-Asp-3COOHF-Aib-Ala-Phe-AcLys-PyrS2-2F3MeF-BztA-Ala-Ala-NH2
IC50 (Bcat-Halo [1]): 4700 nM
IC50 [2]: 41 nM

Ac-[αAllylPro]D[tBuAla][B5(4)]D[Cit]AAFN[PyrS2″][3Thi][Bta]H-NH2 (staple 1-4, 4-11) [I-841]
IC50 [6]: 34400 nM
IC50 [7]: 12 nM
EC50 [8]: 12 nM

B4: I-608 (peptide)
peptide: Ac-[αAllylPro]DI[B5(5)]D[EtGA]AAFQ[S8]F[Bta]Q-NH2
modifications: staple 1-4, 4-11; not fully specified; printed as Ac-PL3-Asp-Ile-B5-Asp-EtGa-Ala-Ala-Phe-Gln-S8-Phe-BztA-Gln-NH2
IC50 [3]: 211 nM
EC50 [4]: 211 nM
IC50 [5]: 211 nM

Ac-[αAllylPro]D[tBuAla][B5(5)]D[2COOHF]AAFF[PyrS2″][2F3MeF][Bta]Q-NH2 (staple 1-4, 4-11) [I-1655]
IC50 (Bcat-Halo [11]): 12700 nM
IC50 [12]: 48 nM

Ac-[αAllylPro]D[tBuAla][B5(12)]DTAAFN[PyrS2][3Thi][Bta]-NH2 (staple 1-4, 4-11; also: earlier eluting staple isomer) [I-859]
IC50 [13]: 36 nM
IC50 (Bcat-Halo [14]): > 20000 nM
EC50 [8]: 36 nM

Ac-[αAllylPro]D[tBuAla][B5(12)]DQAAFN[PyrS2][3Thi][Bta]-NH2 (staple 1-4, 4-11) [I-858]
IC50 [13]: 34 nM
IC50 (Bcat-Halo [14]): > 20000 nM
EC50 [8]: 34 nM

Ac-[αAllylPro]D[tBuAla][B5(4)]DYAAFN[PyrS2″][3Thi][Bta]Q-NH2 (staple 1-4, 4-11) [I-842]
IC50 [6]: 47900 nM
IC50 [7]: 34 nM
EC50 [8]: 34 nM

B5: I-2593 (peptide)
peptide: Ac-[αAllylPro]D[tBuAla][B5]D[Phe(3-COOH)]QAFL[SPip2][3Thi][Bta]A-NH2
modifications: staple 1-4; staple 4-11 (inferred); also: later-eluting HPLC staple isomer composition
IC50 (Bcat-Halo [1]): 29400 nM
IC50 [2]: 27 nM

Ac-[αAllylPro]DI[B5]D[Aad]AAFQ[S8]F[Bta]Q-NH2 (staple 1-4, 4-11) [I-612]
IC50 [3]: 64 nM
IC50 [5]: 64 nM
EC50 [15]: 64 nM

B6: I-2578 (peptide)
peptide: Ac-[αAllylPro]D[tBuAla][B5]D[Phe(3-COOH)][Aib]AFK(Ac)[PyrS2][3Thi][Bta]AA-NH2
modifications: staple 1-4, 4-11; not fully specified; printed as Ac-PL3-Asp-Npg-B5-Asp-3COOHF-Aib-Ala-Phe-AcLys-PyrS2-3Thi-BztA-Ala-Ala-NH2
DLD1 4% Abs IC50 [16]: 4100 nM
IC50 (Bcat-Halo [1]): 5500 nM
IC50 [2]: 5 nM

Ac-[αAllylPro]D[tBuAla][B5(12)]DHAAFN[PyrS2][3Thi][Bta]-NH2 (staple 1-4, 4-11) [I-863]
IC50 [13]: 22 nM
IC50 (Bcat-Halo [14]): > 20000 nM
EC50 [8]: 22 nM

B7: I-2592 (peptide)
peptide: Ac-[αAllylPro]D[tBuAla][B5]D[Phe(3-COOH)]QAFL[SPip2][3Thi][Bta]A-NH2
modifications: staple 1-4; staple 4-11 (inferred); also: earlier-eluting HPLC staple isomer composition
IC50 (Bcat-Halo [1]): > 20000 nM
IC50 [2]: 37 nM

Ac-[αAllylPro]D[tBuAla][B5(4)]DQAAFN[PyrS2″][3Thi][Bta]H-NH2 (staple 1-4, 4-11) [I-839]
IC50 [6]: 41900 nM
IC50 [7]: 7 nM
EC50 [8]: 7 nM

Ac-[αAllylPro]D[tBuAla][B5(4)]DNAAFN[PyrS2″][3Thi][Bta]H-NH2 (staple 1-4, 4-11) [I-837]
IC50 [6]: 23800 nM
IC50 [7]: 5 nM
EC50 [8]: 5 nM

Ac-[αAllylPro]D[tBuAla][B5(5)]D[2COOHF]AAFF[PyrS2″][Phe(2-Cl)][Bta]Q-NH2 (staple 1-4, 4-11) [I-1657]
IC50 (Bcat-Halo [11]): 11000 nM
IC50 [12]: 36 nM

Ac-[αAllylPro]DI[B5]D[TfeGA]AAFQ[S8]F[Bta]Q-NH2 (staple 1-4, 4-11; also: later-eluting staple isomer) [I-611]
IC50 [3]: 55 nM
IC50 [5]: 55 nM
EC50 [15]: 55 nM
